Laboratory results: publication PMC9896810, “Crk proteins activate the Rap1 guanine nucleotide exchange factor C3G by segregated adaptor-dependent and -independent mechanisms” (Cell Communication and Signaling : CCS, 2023)
Substitutions are numbered along the chain they refer to. Names may count otherwise. Blank lines part the entries; values can stand above or below the binder they belong to. No end group written: not given here. fluorescein = N-terminal fluorescein probe

How the values were obtained:
[1] = molecular target: T1, C3G (full-length, residues 4-1077) (human, UniProt Q13905-1 4-1077); experiment: ITC; C3G or pC3G in the cell titrated with the Crk protein, 25 °C, 300 mM NaCl, pH 7.5; global fit of three titrations with SEDPHAT, three symmetric binding sites, microscopic kd; conditions: both partners purified
T1 construct: also called C3G WT; RapGEF1; source: E. coli BL21 (DE3), purified (IMAC, TEV digestion, reversed IMAC, SEC); not shown: His, N-terminal, cleaved; Halo, N-terminal, cleaved
T1 sequence (looked up): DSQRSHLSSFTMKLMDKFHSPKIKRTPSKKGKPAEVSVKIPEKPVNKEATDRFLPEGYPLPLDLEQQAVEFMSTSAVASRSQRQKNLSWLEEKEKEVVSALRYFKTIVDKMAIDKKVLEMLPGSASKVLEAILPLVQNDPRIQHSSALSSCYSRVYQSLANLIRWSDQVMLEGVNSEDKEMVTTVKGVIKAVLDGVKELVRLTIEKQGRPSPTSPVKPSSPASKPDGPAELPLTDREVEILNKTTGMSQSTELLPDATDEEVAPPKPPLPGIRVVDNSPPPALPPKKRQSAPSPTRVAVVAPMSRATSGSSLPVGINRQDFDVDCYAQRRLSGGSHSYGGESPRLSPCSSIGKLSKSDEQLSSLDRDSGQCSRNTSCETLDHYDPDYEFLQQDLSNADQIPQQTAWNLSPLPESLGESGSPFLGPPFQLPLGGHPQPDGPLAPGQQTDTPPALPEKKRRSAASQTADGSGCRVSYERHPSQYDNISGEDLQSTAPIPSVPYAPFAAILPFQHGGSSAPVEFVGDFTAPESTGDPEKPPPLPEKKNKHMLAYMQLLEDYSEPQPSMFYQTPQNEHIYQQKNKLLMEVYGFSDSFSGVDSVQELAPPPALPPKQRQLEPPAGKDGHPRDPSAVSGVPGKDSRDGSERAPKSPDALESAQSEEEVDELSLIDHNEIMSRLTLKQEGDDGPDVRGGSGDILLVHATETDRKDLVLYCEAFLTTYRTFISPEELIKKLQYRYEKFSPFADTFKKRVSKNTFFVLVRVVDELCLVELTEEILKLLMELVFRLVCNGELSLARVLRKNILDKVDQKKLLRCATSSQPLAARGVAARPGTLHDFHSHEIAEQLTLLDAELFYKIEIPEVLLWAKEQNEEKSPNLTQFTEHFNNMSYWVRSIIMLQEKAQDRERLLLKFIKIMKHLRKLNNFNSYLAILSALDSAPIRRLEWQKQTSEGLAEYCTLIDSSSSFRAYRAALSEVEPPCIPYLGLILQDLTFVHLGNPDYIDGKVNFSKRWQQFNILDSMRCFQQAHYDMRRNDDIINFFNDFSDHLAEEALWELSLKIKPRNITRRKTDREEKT

[2] = molecular target: T2, Src-phosphorylated C3G (pC3G), wild type (human, UniProt Q13905-1 4-1077, phosphotyrosines (phosphorylated in vitro by Src; sites not stated)); experiment: cell-based or functional assay
T2 sequence (looked up): T1 sequence (looked up)

[3] = molecular target: T3, C3G full-length wild type (human, isoform a, residues 4-1077) (human, UniProt Q13905-1 4-1077); experiment: cell-based or functional assay
T3 sequence (looked up): T1 sequence (looked up)

CrkL (full-length) = molecular target: T4, CrkL (full-length) (human, UniProt P46109 1-303); experiment: fluorescence polarisation; fluorescein-labelled peptide at 0.2 µM titrated with CrkL or CrkL W160S; 20 mM Tris-HCl, 150 mM NaCl, pH 7.5, 0.1 mg/ml BSA; 1:1 binding model; apparent kd; conditions: both partners purified
T4 construct: human CrkL, residues 1-303, in pETEV15b; also called Crk-like protein; source: E. coli BL21 (DE3), purified (IMAC, TEV digestion, SEC); not shown: His, N-terminal, cleaved

CrkL-W160S = molecular target: T5, CrkL-W160S (human, UniProt P46109 1-303, W160S); experiment: as above; conditions: both partners purified
T5 construct: human CrkL, residues 1-303, point mutant W160S, in pETEV15b; source: E. coli BL21 (DE3), purified (IMAC, TEV digestion, SEC); not shown: His, N-terminal, cleaved

[4] = molecular target: T6, CrkL, full-length (human) (human, UniProt P46109 1-303); experiment: fluorescence polarisation; fluorescein peptides at 0.2 µM titrated with CrkL; 20 mM Tris-HCl, 150 mM NaCl, pH 7.5, 0.1 mg/ml BSA; 1:1 model; apparent kd; conditions: both partners purified
T6 construct: Monomer by sedimentation velocity and DLS (theoretical mass 33.7 kDa); Purification 'in a similar manner' as C3G would include TEV cleavage of the tag; also called Crk-like protein; wild type CrkL; source: E. coli BL21 (DE3), purified (His-tagged, purified in a similar manner as C3G)

[5] = molecular target: T6, CrkL, full-length (human); experiment: ITC; single-PRM mutants of C3G in the cell titrated with full-length CrkL or CrkL-SH3N; 25 °C; 1:1 model in SEDPHAT; N is the competent fraction of C3G; conditions: both partners purified

T5 sequence (P46109 whole entry W160S, the tested form may be a part): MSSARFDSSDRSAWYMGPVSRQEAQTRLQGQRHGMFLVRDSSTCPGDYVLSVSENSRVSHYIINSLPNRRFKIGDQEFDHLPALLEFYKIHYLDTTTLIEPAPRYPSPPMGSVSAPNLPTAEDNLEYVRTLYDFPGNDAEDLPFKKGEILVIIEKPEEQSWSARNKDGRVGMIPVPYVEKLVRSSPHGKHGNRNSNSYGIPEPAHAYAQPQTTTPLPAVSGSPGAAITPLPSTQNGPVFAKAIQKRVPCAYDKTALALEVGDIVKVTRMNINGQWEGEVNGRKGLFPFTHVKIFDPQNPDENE
T4 sequence (P46109 whole entry, the tested form may be a part): as the sequence (P46109 whole entry W160S, the tested form may be a part) above, with S160W counted along it

- Kd [1]: 1.1 µM
B1: CrkL-SH3N-SH3C (domain or fragment, human, UniProt P46109 125-303, looked up)
chain: LEYVRTLYDFPGNDAEDLPFKKGEILVIIEKPEEQWWSARNKDGRVGMIPVPYVEKLVRSSPHGKHGNRNSNSYGIPEPAHAYAQPQTTTPLPAVSGSPGAAITPLPSTQNGPVFAKAIQKRVPCAYDKTALALEVGDIVKVTRMNINGQWEGEVNGRKGLFPFTHVKIFDPQNPDENE
notes: human CrkL, SH3N-SH3C, residues 125-303, in pETEV15b; source: E. coli BL21 (DE3), purified (IMAC, TEV digestion, SEC); not shown: His, N-terminal, cleaved

- AC50 of the dose-response activation of the GEF activity of pC3G (0.2 µM) on Rap1b:mant-dGDP [2]: 4.5 µM
- kmax of the dose-response activation of the GEF activity of pC3G (0.2 µM) on Rap1b:mant-dGDP [2]: 0.0134 s^-1 µM^-1
- AC50 of the dose-response activation of the GEF activity of C3G (1 µM) on Rap1b:mant-dGDP [3]: 19.8 µM
- kmax of the dose-response activation of the GEF activity of C3G (1 µM) on Rap1b:mant-dGDP [3]: 12900 M⁻¹ s⁻¹
B2: CrkL-SH3N-SH3C (residues 125-303) (domain or fragment, human, UniProt P46109 125-303, looked up)
chain: B1 chain

- Kd (CrkL (full-length)): 1.4 µM
- Kd (CrkL-W160S): ~490 µM
B3: P1 (Fluo-280-293) (peptide)
peptide: fluorescein-NGPPPALPPKKRQS
notes: P1 Pro-rich motif of human C3G, residues 280-293; also called P1 peptide of C3G; source: synthetic peptide (custom synthesized, Thermo Scientific)

- Kd (CrkL (full-length)): 2.2 µM
- Kd (CrkL-W160S): > 4000 µM
B4: P2 (Fluo-450-463) (peptide)
peptide: fluorescein-TDTPPALPEKKRRS
notes: P2 Pro-rich motif of human C3G, residues 450-463; also called P2 peptide of C3G; source: synthetic peptide (custom synthesized, Thermo Scientific)

- Kd (CrkL (full-length)): 2.2 µM
- Kd (CrkL-W160S): ~425 µM
B5: P3 (Fluo-537-550) (peptide)
peptide: fluorescein-PEKPPPLPEKKNKH
notes: P3 Pro-rich motif of human C3G, residues 537-550; also called P3 peptide of C3G; source: synthetic peptide (custom synthesized, Thermo Scientific)

- Kd (CrkL (full-length)): 3 µM
- Kd (CrkL-W160S): ~415 µM
B6: P4 (Fluo-605-618) (peptide)
peptide: fluorescein-LAPPPALPPKQRQL
notes: P4 Pro-rich motif of human C3G, residues 605-618; also called P4 peptide of C3G; source: synthetic peptide (custom synthesized, Thermo Scientific)

- Kd [1]: 2.2 µM
B7: CrkL-SH2-SH3N (domain or fragment, human, UniProt P46109 1-182, looked up)
chain: MSSARFDSSDRSAWYMGPVSRQEAQTRLQGQRHGMFLVRDSSTCPGDYVLSVSENSRVSHYIINSLPNRRFKIGDQEFDHLPALLEFYKIHYLDTTTLIEPAPRYPSPPMGSVSAPNLPTAEDNLEYVRTLYDFPGNDAEDLPFKKGEILVIIEKPEEQWWSARNKDGRVGMIPVPYVEKLV
notes: human CrkL, SH2-SH3N, residues 1-182, in pETEV15b; also called CrkL-SH2N-SH3N; source: E. coli BL21 (DE3), purified (IMAC, TEV digestion, SEC); not shown: His, N-terminal, cleaved

- AC50 of the dose-response activation of the GEF activity of pC3G (0.2 µM) on Rap1b:mant-dGDP [2]: 4.9 µM
- kmax of the dose-response activation of the GEF activity of pC3G (0.2 µM) on Rap1b:mant-dGDP [2]: 0.0377 s^-1 µM^-1
- AC50 of the dose-response activation of the GEF activity of C3G (1 µM) on Rap1b:mant-dGDP [3]: 15.8 µM
- kmax of the dose-response activation of the GEF activity of C3G (1 µM) on Rap1b:mant-dGDP [3]: 8400 M⁻¹ s⁻¹
B8: CrkL-SH2-SH3N (residues 1-182) (domain or fragment, human, UniProt P46109 1-182, looked up)
chain: B7 chain

- Kd [1]: 2.7 µM
B9: CrkII (full-length) (natural protein, human, UniProt P46108-1 1-304, looked up)
chain: MAGNFDSEERSSWYWGRLSRQEAVALLQGQRHGVFLVRDSSTSPGDYVLSVSENSRVSHYIINSSGPRPPVPPSPAQPPPGVSPSRLRIGDQEFDSLPALLEFYKIHYLDTTTLIEPVSRSRQGSGVILRQEEAEYVRALFDFNGNDEEDLPFKKGDILRIRDKPEEQWWNAEDSEGKRGMIPVPYVEKYRPASASVSALIGGNQEGSHPQPLGGPEPGPYAQPSVNTPLPNLQNGPIYARVIQKRVPNAYDKTALALEVGELVKVTKINVSGQWEGECNGKRGHFPFTHVRLLDQQNPDEDFS
notes: human CrkII, residues 1-304, in pETEV15b; source: E. coli BL21 (DE3), purified (IMAC, TEV digestion, SEC); not shown: His, N-terminal, cleaved

- AC50 of the dose-response activation of the GEF activity of pC3G (0.2 µM) on Rap1b:mant-dGDP [2]: 2.6 µM
- kmax of the dose-response activation of the GEF activity of pC3G (0.2 µM) on Rap1b:mant-dGDP [2]: 0.0223 s^-1 µM^-1
- AC50 of the dose-response activation of the GEF activity of C3G (1 µM) on Rap1b:mant-dGDP [3]: 65.7 µM
- kmax of the dose-response activation of the GEF activity of C3G (1 µM) on Rap1b:mant-dGDP [3]: 7200 M⁻¹ s⁻¹
B10: CrkII (human) (natural protein, UniProt P46108-1 1-304, looked up)
chain: B9 chain

- binding result [4]: binds
B11: C3G P1 peptide (residues 280-293), fluorescein-labeled (peptide, UniProt Q13905-1 280-293, looked up)
peptide: fluorescein-NSPPPALPPKKRQS
notes: Pro-rich motif P1 of human C3G, residues 280-293; source: synthetic peptide (custom synthesized, Thermo Scientific)

- Kd [5]: ~1 µM
B12: C3G-PAAA (natural protein)
chain: DSQRSHLSSFTMKLMDKFHSPKIKRTPSKKGKPAEVSVKIPEKPVNKEATDRFLPEGYPLPLDLEQQAVEFMSTSAVASRSQRQKNLSWLEEKEKEVVSALRYFKTIVDKMAIDKKVLEMLPGSASKVLEAILPLVQNDPRIQHSSALSSCYSRVYQSLANLIRWSDQVMLEGVNSEDKEMVTTVKGVIKAVLDGVKELVRLTIEKQGRPSPTSPVKPSSPASKPDGPAELPLTDREVEILNKTTGMSQSTELLPDATDEEVAPPKPPLPGIRVVDNSPPPALPPKKRQSAPSPTRVAVVAPMSRATSGSSLPVGINRQDFDVDCYAQRRLSGGSHSYGGESPRLSPCSSIGKLSKSDEQLSSLDRDSGQCSRNTSCETLDHYDPDYEFLQQDLSNADQIPQQTAWNLSPLPESLGESGSPFLGPPFQLPLGGHPQPDGPLAPGQQTDTAAAAAEAKRRSAASQTADGSGCRVSYERHPSQYDNISGEDLQSTAPIPSVPYAPFAAILPFQHGGSSAPVEFVGDFTAPESTGDPEKAAPAAEAKNKHMLAYMQLLEDYSEPQPSMFYQTPQNEHIYQQKNKLLMEVYGFSDSFSGVDSVQELAPAAAAAPAQRQLEPPAGKDGHPRDPSAVSGVPGKDSRDGSERAPKSPDALESAQSEEEVDELSLIDHNEIMSRLTLKQEGDDGPDVRGGSGDILLVHATETDRKDLVLYCEAFLTTYRTFISPEELIKKLQYRYEKFSPFADTFKKRVSKNTFFVLVRVVDELCLVELTEEILKLLMELVFRLVCNGELSLARVLRKNILDKVDQKKLLRCATSSQPLAARGVAARPGTLHDFHSHEIAEQLTLLDAELFYKIEIPEVLLWAKEQNEEKSPNLTQFTEHFNNMSYWVRSIIMLQEKAQDRERLLLKFIKIMKHLRKLNNFNSYLAILSALDSAPIRRLEWQKQTSEGLAEYCTLIDSSSSFRAYRAALSEVEPPCIPYLGLILQDLTFVHLGNPDYIDGKVNFSKRWQQFNILDSMRCFQQAHYDMRRNDDIINFFNDFSDHLAEEALWELSLKIKPRNITRRKTDREEKT

- Kd [5]: ~1 µM
B13: C3G-APAA (natural protein)
chain: B12 chain with P280A, P281A, L283A, P284A, K286A, A450P, A451P, A453L, A454P, A456K
